Numbered stars: 1 amine (or outer) side, 2 acyl side, 3 side chain; on linkers, the order of the positions; unused ones are H or OH. * marks the point of attachment. C20 diacid = O=C(O)CCCCCCCCCCCCCCCCCCC(=O)*; γGlu = O=C(O)[C@H](CCC(=O)[*:2])N[*:1]; C12 diacid = O=C(O)CCCCCCCCCCC(=O)*
T1: human amylin 3(a) receptor (human calcitonin receptor co-expressed with RAMP-3) (human, UniProt P30988 25-474; O60896 24-148, limits assumed)
T1 sequence (looked up) 1: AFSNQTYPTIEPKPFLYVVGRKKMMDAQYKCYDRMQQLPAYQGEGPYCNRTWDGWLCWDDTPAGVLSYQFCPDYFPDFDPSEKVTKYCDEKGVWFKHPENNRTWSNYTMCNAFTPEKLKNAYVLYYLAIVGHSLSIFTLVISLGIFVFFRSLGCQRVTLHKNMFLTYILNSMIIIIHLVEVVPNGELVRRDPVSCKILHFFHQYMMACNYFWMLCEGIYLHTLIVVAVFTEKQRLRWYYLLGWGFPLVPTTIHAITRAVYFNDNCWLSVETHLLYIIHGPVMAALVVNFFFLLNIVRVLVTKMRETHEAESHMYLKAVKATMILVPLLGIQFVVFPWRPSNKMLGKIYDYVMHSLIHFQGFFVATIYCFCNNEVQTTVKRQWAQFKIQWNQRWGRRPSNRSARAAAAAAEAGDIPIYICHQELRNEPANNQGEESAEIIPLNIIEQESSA
T1 sequence (looked up) 2: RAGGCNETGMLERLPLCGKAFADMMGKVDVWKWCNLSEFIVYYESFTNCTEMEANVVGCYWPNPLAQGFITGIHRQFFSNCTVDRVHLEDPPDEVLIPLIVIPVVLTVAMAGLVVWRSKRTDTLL

T2: human calcitonin receptor (human, UniProt P30988 25-474)
T2 sequence (looked up): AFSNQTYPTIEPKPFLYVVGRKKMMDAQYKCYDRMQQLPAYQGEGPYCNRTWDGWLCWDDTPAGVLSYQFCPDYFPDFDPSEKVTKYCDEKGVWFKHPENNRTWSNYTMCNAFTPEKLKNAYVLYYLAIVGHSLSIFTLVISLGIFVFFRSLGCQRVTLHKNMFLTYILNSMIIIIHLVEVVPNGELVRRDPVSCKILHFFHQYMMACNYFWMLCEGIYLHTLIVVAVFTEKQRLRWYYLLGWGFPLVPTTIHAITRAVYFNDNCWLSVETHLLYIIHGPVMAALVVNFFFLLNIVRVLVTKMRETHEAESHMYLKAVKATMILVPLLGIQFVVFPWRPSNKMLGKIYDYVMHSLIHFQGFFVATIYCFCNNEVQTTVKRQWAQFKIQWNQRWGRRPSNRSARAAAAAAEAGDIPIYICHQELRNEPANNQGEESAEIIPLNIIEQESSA

B1: [N-terminal(C20 diacid-gGlu), des1, 30S, 31G, 33A]mimylin (peptide)
peptide: {C20 diacid-γGlu}-ASELSTAALGRLSAELHELATLPRTETGSGSA-NH2
SMILES: CC(C)C[C@H](NC(=O)[C@H](C)NC(=O)[C@H](C)NC(=O)[C@@H](NC(=O)[C@H](CO)NC(=O)[C@H](CC(C)C)NC(=O)[C@H](CCC(=O)O)NC(=O)[C@H](CO)NC(=O)[C@H](C)NC(=O)CC[C@H](NC(=O)CCCCCCCCCCCCCCCCCCC(=O)O)C(=O)O)[C@@H](C)O)C(=O)NCC(=O)N[C@@H](CCCNC(=N)N)C(=O)N[C@@H](CC(C)C)C(=O)N[C@@H](CO)C(=O)N[C@@H](C)C(=O)N[C@@H](CCC(=O)O)C(=O)N[C@@H](CC(C)C)C(=O)N[C@@H](Cc1c[nH]cn1)C(=O)N[C@@H](CCC(=O)O)C(=O)N[C@@H](CC(C)C)C(=O)N[C@@H](C)C(=O)N[C@H](C(=O)N[C@@H](CC(C)C)C(=O)N1CCC[C@H]1C(=O)N[C@@H](CCCNC(=N)N)C(=O)N[C@H](C(=O)N[C@@H](CCC(=O)O)C(=O)N[C@H](C(=O)NCC(=O)N[C@@H](CO)C(=O)NCC(=O)N[C@@H](CO)C(=O)N[C@@H](C)C(N)=O)[C@@H](C)O)[C@@H](C)O)[C@@H](C)O
B2: [N-terminal(C20 diacid-gGlu), des1, 30S, 31G, 33G]mimylin (peptide)
peptide: {C20 diacid-γGlu}-ASELSTAALGRLSAELHELATLPRTETGSGSG-NH2
SMILES: CC(C)C[C@H](NC(=O)[C@H](C)NC(=O)[C@H](C)NC(=O)[C@@H](NC(=O)[C@H](CO)NC(=O)[C@H](CC(C)C)NC(=O)[C@H](CCC(=O)O)NC(=O)[C@H](CO)NC(=O)[C@H](C)NC(=O)CC[C@H](NC(=O)CCCCCCCCCCCCCCCCCCC(=O)O)C(=O)O)[C@@H](C)O)C(=O)NCC(=O)N[C@@H](CCCNC(=N)N)C(=O)N[C@@H](CC(C)C)C(=O)N[C@@H](CO)C(=O)N[C@@H](C)C(=O)N[C@@H](CCC(=O)O)C(=O)N[C@@H](CC(C)C)C(=O)N[C@@H](Cc1c[nH]cn1)C(=O)N[C@@H](CCC(=O)O)C(=O)N[C@@H](CC(C)C)C(=O)N[C@@H](C)C(=O)N[C@H](C(=O)N[C@@H](CC(C)C)C(=O)N1CCC[C@H]1C(=O)N[C@@H](CCCNC(=N)N)C(=O)N[C@H](C(=O)N[C@@H](CCC(=O)O)C(=O)N[C@H](C(=O)NCC(=O)N[C@@H](CO)C(=O)NCC(=O)N[C@@H](CO)C(=O)NCC(N)=O)[C@@H](C)O)[C@@H](C)O)[C@@H](C)O
B3: [N-terminal(C20 diacid-gGlu), des1, 30S, 31G, 33F]mimylin (peptide)
peptide: {C20 diacid-γGlu}-ASELSTAALGRLSAELHELATLPRTETGSGSF-NH2
SMILES: CC(C)C[C@H](NC(=O)[C@H](C)NC(=O)[C@H](C)NC(=O)[C@@H](NC(=O)[C@H](CO)NC(=O)[C@H](CC(C)C)NC(=O)[C@H](CCC(=O)O)NC(=O)[C@H](CO)NC(=O)[C@H](C)NC(=O)CC[C@H](NC(=O)CCCCCCCCCCCCCCCCCCC(=O)O)C(=O)O)[C@@H](C)O)C(=O)NCC(=O)N[C@@H](CCCNC(=N)N)C(=O)N[C@@H](CC(C)C)C(=O)N[C@@H](CO)C(=O)N[C@@H](C)C(=O)N[C@@H](CCC(=O)O)C(=O)N[C@@H](CC(C)C)C(=O)N[C@@H](Cc1c[nH]cn1)C(=O)N[C@@H](CCC(=O)O)C(=O)N[C@@H](CC(C)C)C(=O)N[C@@H](C)C(=O)N[C@H](C(=O)N[C@@H](CC(C)C)C(=O)N1CCC[C@H]1C(=O)N[C@@H](CCCNC(=N)N)C(=O)N[C@H](C(=O)N[C@@H](CCC(=O)O)C(=O)N[C@H](C(=O)NCC(=O)N[C@@H](CO)C(=O)NCC(=O)N[C@@H](CO)C(=O)N[C@@H](Cc1ccccc1)C(N)=O)[C@@H](C)O)[C@@H](C)O)[C@@H](C)O
B4: [N-terminal(C20 diacid-gGlu), des1, 30S, 31G, 33S]mimylin (peptide)
peptide: {C20 diacid-γGlu}-ASELSTAALGRLSAELHELATLPRTETGSGSS-NH2
SMILES: CC(C)C[C@H](NC(=O)[C@H](C)NC(=O)[C@H](C)NC(=O)[C@@H](NC(=O)[C@H](CO)NC(=O)[C@H](CC(C)C)NC(=O)[C@H](CCC(=O)O)NC(=O)[C@H](CO)NC(=O)[C@H](C)NC(=O)CC[C@H](NC(=O)CCCCCCCCCCCCCCCCCCC(=O)O)C(=O)O)[C@@H](C)O)C(=O)NCC(=O)N[C@@H](CCCNC(=N)N)C(=O)N[C@@H](CC(C)C)C(=O)N[C@@H](CO)C(=O)N[C@@H](C)C(=O)N[C@@H](CCC(=O)O)C(=O)N[C@@H](CC(C)C)C(=O)N[C@@H](Cc1c[nH]cn1)C(=O)N[C@@H](CCC(=O)O)C(=O)N[C@@H](CC(C)C)C(=O)N[C@@H](C)C(=O)N[C@H](C(=O)N[C@@H](CC(C)C)C(=O)N1CCC[C@H]1C(=O)N[C@@H](CCCNC(=N)N)C(=O)N[C@H](C(=O)N[C@@H](CCC(=O)O)C(=O)N[C@H](C(=O)NCC(=O)N[C@@H](CO)C(=O)NCC(=O)N[C@@H](CO)C(=O)N[C@@H](CO)C(N)=O)[C@@H](C)O)[C@@H](C)O)[C@@H](C)O
B5: [N-terminal(C20 diacid-gGlu), des1, 30S, 31G, 33Y]mimylin (peptide)
peptide: {C20 diacid-γGlu}-ASELSTAALGRLSAELHELATLPRTETGSGSY-NH2
SMILES: CC(C)C[C@H](NC(=O)[C@H](C)NC(=O)[C@H](C)NC(=O)[C@@H](NC(=O)[C@H](CO)NC(=O)[C@H](CC(C)C)NC(=O)[C@H](CCC(=O)O)NC(=O)[C@H](CO)NC(=O)[C@H](C)NC(=O)CC[C@H](NC(=O)CCCCCCCCCCCCCCCCCCC(=O)O)C(=O)O)[C@@H](C)O)C(=O)NCC(=O)N[C@@H](CCCNC(=N)N)C(=O)N[C@@H](CC(C)C)C(=O)N[C@@H](CO)C(=O)N[C@@H](C)C(=O)N[C@@H](CCC(=O)O)C(=O)N[C@@H](CC(C)C)C(=O)N[C@@H](Cc1c[nH]cn1)C(=O)N[C@@H](CCC(=O)O)C(=O)N[C@@H](CC(C)C)C(=O)N[C@@H](C)C(=O)N[C@H](C(=O)N[C@@H](CC(C)C)C(=O)N1CCC[C@H]1C(=O)N[C@@H](CCCNC(=N)N)C(=O)N[C@H](C(=O)N[C@@H](CCC(=O)O)C(=O)N[C@H](C(=O)NCC(=O)N[C@@H](CO)C(=O)NCC(=O)N[C@@H](CO)C(=O)N[C@@H](Cc1ccc(O)cc1)C(N)=O)[C@@H](C)O)[C@@H](C)O)[C@@H](C)O
B6: [N-terminal(C20 diacid-gGlu), des1, 30S, 31G, 33L]mimylin (peptide)
peptide: {C20 diacid-γGlu}-ASELSTAALGRLSAELHELATLPRTETGSGSL-NH2
SMILES: CC(C)C[C@H](NC(=O)[C@H](CO)NC(=O)CNC(=O)[C@H](CO)NC(=O)CNC(=O)[C@@H](NC(=O)[C@H](CCC(=O)O)NC(=O)[C@@H](NC(=O)[C@H](CCCNC(=N)N)NC(=O)[C@@H]1CCCN1C(=O)[C@H](CC(C)C)NC(=O)[C@@H](NC(=O)[C@H](C)NC(=O)[C@H](CC(C)C)NC(=O)[C@H](CCC(=O)O)NC(=O)[C@H](Cc1c[nH]cn1)NC(=O)[C@H](CC(C)C)NC(=O)[C@H](CCC(=O)O)NC(=O)[C@H](C)NC(=O)[C@H](CO)NC(=O)[C@H](CC(C)C)NC(=O)[C@H](CCCNC(=N)N)NC(=O)CNC(=O)[C@H](CC(C)C)NC(=O)[C@H](C)NC(=O)[C@H](C)NC(=O)[C@@H](NC(=O)[C@H](CO)NC(=O)[C@H](CC(C)C)NC(=O)[C@H](CCC(=O)O)NC(=O)[C@H](CO)NC(=O)[C@H](C)NC(=O)CC[C@H](NC(=O)CCCCCCCCCCCCCCCCCCC(=O)O)C(=O)O)[C@@H](C)O)[C@@H](C)O)[C@@H](C)O)[C@@H](C)O)C(N)=O
B7: [N-terminal(C20 diacid-gGlu), des1, 30S, 31G, 33H]mimylin (peptide)
peptide: {C20 diacid-γGlu}-ASELSTAALGRLSAELHELATLPRTETGSGSH-NH2
SMILES: CC(C)C[C@H](NC(=O)[C@H](C)NC(=O)[C@H](C)NC(=O)[C@@H](NC(=O)[C@H](CO)NC(=O)[C@H](CC(C)C)NC(=O)[C@H](CCC(=O)O)NC(=O)[C@H](CO)NC(=O)[C@H](C)NC(=O)CC[C@H](NC(=O)CCCCCCCCCCCCCCCCCCC(=O)O)C(=O)O)[C@@H](C)O)C(=O)NCC(=O)N[C@@H](CCCNC(=N)N)C(=O)N[C@@H](CC(C)C)C(=O)N[C@@H](CO)C(=O)N[C@@H](C)C(=O)N[C@@H](CCC(=O)O)C(=O)N[C@@H](CC(C)C)C(=O)N[C@@H](Cc1c[nH]cn1)C(=O)N[C@@H](CCC(=O)O)C(=O)N[C@@H](CC(C)C)C(=O)N[C@@H](C)C(=O)N[C@H](C(=O)N[C@@H](CC(C)C)C(=O)N1CCC[C@H]1C(=O)N[C@@H](CCCNC(=N)N)C(=O)N[C@H](C(=O)N[C@@H](CCC(=O)O)C(=O)N[C@H](C(=O)NCC(=O)N[C@@H](CO)C(=O)NCC(=O)N[C@@H](CO)C(=O)N[C@@H](Cc1c[nH]cn1)C(N)=O)[C@@H](C)O)[C@@H](C)O)[C@@H](C)O

Assays:
[1] = biological target: T1, human amylin 3(a) receptor (human …); assay: cell-based or functional assay
[2] = biological target: T2, human calcitonin receptor; assay: cell-based or functional assay

| Binder | hAmylin-R funct. EC50 (pM) [1] [pM] | hCTR funct. EC50 (pM) [2] [pM] |
| --- | --- | --- |
| B1 | 67 | 40 |
| B2 | 142 | 66 |
| B3 | 50 | 40 |
| B4 | 63 | 38 |
| {C12 diacid}-EASELSTAALGRLSAELHELATLPRTETGPESP-NH2 [[N-terminal(C12 diacid)]mimylin] | 23 | 8 |
| B5 | 46 | 37 |
| B6 | 55 | 31 |
| B7 | 53 | 48 |
